Assay results as given in patent publication US20030167129A1, “Binding compounds and methods for identifying binding compounds” (priority 2000, published 2003).
Values belong to the compound of their own block, whether it stands above or below them. Where a SMILES comes first, the peptide text is derived from it. Where no end group is shown, it is not given here. [ ]: non-standard residue; d: D form. pY = N[C@@H](Cc1ccc(OP(=O)(O)O)cc1)C(=O)O; 2Nal = N[C@@H](Cc1ccc2ccccc2c1)C(=O)O; Tic = O=C(O)[C@@H]1Cc2ccccc2CN1

Assays:
SH2 (src) = biological target: T1, SH2 (src) (Homo sapiens, UniProt P12931); conditions: binding domain SH2 (src); cited from earlier work
T1 construct: SH2 (src)

HIV IIIb = assay type: cell-based, HIV-1
Protocol: Several of these peptides have also been screened for activity in inhibition of HIV infectivity and determined to be effective in specifically blocking the entrance of HIV into cells with EC50's in the nM range. For example, the assays depicted in FIG. 12 confirm the inhibition of HIV infection by CXCR4 peptide inhibitors.
The anti-HIV activity of exemplary compounds was tested using established adherent HELA cells or Magi cell-based (Magi cell line incorporating the reporter genes) cell line infected with a variety of HIV-1 isolates. Inhibitory activity was determined using a reporter system. The cell line was modified to contain the gene for the HIV-LTR (long terminal repeat) promoter which is used by HIV after infection. This gene was coupled to an enzyme, β-galactosidase, which can cleave a substrate, CPRG (Chlorophenol red β-D-galactoside) which gives rise to a colored signal or FDG (Fluorescein di-Galactoside) which gives rise to a fluorescent signal. Thus, if the cell becomes infected with HIV, it couples to the HIV-LTR promoter, producing the enzyme β-galactosidase, which then cleaves the CPRG substrate giving rise to a measurable absorbance signal, for example, at or about 595 nm. […]
Measurements were taken four days after infection. […] EC50's were determined graphically using Kaleidagraph, a software program sold by Synergy Software, Reading, PA. […]

CXCR4 = biological target: T2, CXCR4 (Homo sapiens, UniProt P61073); assay: radioligand binding assay, [125I]-SDF-1α on membrane preparations of GST-CXCR4 (High Five); conditions: increasing [125I]-SDF-1α 0.5 nM to 10 nM; GST-CXCR4 (High Five) membranes; FIG. 7A; read-out: KD, saturation binding
T2 construct: A full-length clone was not isolated with the 3′ and 5′ primers; however, two halves were isolated and ligated together; made in house; host or cells: High Five (Trichoplusia ni) insect cells, baculovirus; membrane preparation
T2 sequence (P61073 whole entry): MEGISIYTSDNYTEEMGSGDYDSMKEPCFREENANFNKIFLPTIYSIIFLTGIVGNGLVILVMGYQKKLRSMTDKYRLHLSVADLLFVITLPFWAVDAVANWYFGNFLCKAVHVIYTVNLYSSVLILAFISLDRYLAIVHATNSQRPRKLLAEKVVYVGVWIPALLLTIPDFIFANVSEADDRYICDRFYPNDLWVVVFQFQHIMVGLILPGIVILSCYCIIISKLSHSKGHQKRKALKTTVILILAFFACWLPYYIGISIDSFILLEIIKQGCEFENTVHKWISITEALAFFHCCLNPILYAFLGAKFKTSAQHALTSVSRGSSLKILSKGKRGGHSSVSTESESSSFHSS
Protocol: Relative affinities were measured by modifying the radiolabel binding assay used in receptor purification. Therefore, the ability of these peptides to displace [1^251]-SDF-1 from purified CXCR4 membranes was measured.
Whole cells from Sf9 and High five cell lines were lysed using hypotonic buffers (10 mM Tris, pH 7.4, 5 mM EDTA), and membrane preparations were made by homogenization and centrifugation using standard techniques known to those skilled in the art. […] For filtration and washing, the reaction was transferred to Millipore Multiscreen filter plates (HATF 0.45 μm; pre-blocked with 10% BSA) (Bedford, Mass.), filtered using vacuum, washed 4-5 times with 200 μL ice-cold buffer, and radioactive counts bound were detected using scintillation counting. All points were done in triplicate. Uninfected cells were used as a control for this experiment. […] Analyses of KD and IC50 were performed using non-linear curve fitting in Kaleidagraph (software program sold by Synergy Software, Reading, Pa.).
The affinity for the receptor was determined using standard radioligand displacement methodology.

Compound: pYEEIY ([pY]EEIY)
- Kd (SH2 (src)): 100 nM

Compound: CC[C@H](C)[C@H](NC(=O)[C@H](CC(C)C)NC(=O)[C@H](CO)NC(=O)[C@H](CCCNC(=N)N)NC(=O)[C@H](C)N)C(=O)N[C@@H](Cc1ccc2ccccc2c1)C(=O)N[C@@H](CCCNC(=N)N)C(=O)N1Cc2ccccc2C[C@H]1C(=O)N[C@@H](C)C(=O)N[C@@H](CCCNC(=N)N)C(=O)N[C@@H](CCCNC(=N)N)C(=O)N[C@@H](Cc1ccc2ccccc2c1)C(=O)N[C@@H](CCCNC(=N)N)C(=O)N[C@@H](CCCNC(=N)N)C(N)=O [CPI-1500, ARSLI(2-Nal)R(Tic)ARR(2-Nal)RR] (H-ARSLI[2Nal]R[Tic]ARR[2Nal]RR-NH2; N-terminus assumed)
- viral specificity (HIV IIIb; HIV IIIb versus R5 virus 9881): specificity for the HIV IIIb over the R5 virus 9881
- EC50 (HIV IIIb; HIV IIIb, FIG. 12A, read-out: EC50, inhibition of infection of HIV IIIb): 280 nM

- Kd (CXCR4): 3.27 nM
Compound: [^125I]-SDF-1α: radiolabeled SDF-1α, the radioligand of the CXCR4 binding assay
